Data: patent US20210061922A1 (published 2021)

Molecular target: CD16a (UniProt P08637 17-208)
Test: SPR

Chain of CD16a (P08637 17-208): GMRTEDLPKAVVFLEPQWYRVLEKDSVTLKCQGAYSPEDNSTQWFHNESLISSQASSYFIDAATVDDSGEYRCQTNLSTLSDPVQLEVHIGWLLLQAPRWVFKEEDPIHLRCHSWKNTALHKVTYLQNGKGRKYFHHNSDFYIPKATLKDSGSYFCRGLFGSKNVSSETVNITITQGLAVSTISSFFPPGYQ

B1: Anti-CD16 nanobody (VHH)
VHH: EVQLTESGGEDVQAGGSLRLSCSASGLTFSSYNMGWFRRAPGKEREFVASITWSGRDTFYADSVKGRFTISRDNAKNTVYLQMSSLKPEDTATYYCAANPWPVAAPRSGTYWGEGTQVTV
- Kd: 2.6 nM
